Source: patent publication US5981483
“And” between values parts separate entries of the source, which are not always exact repeats. Equal values may be shown once.

What was measured:
BMP-4 [1] = assay: SPR (BIAcore); analyte over immobilized cytokine; repeated calculation
BMP-6 [2] = assay: as above
TGF-β2 [3] = assay: as above
[4] = target: purified human TGF-β1 (human) (UniProt P01137)
[5] = target: TGF-β in dexamethasone-treated rat bone marrow cultures (rat)
[6] = target: active TGF-β produced by Mv1Lu cells (mink)
[7] = target: purified human TGF-β1 (human) (UniProt P01137); remark: listed apart in the source
[8] = target: T1, recombinant human BMP-2 (human) (UniProt P12643)
T1 sequence: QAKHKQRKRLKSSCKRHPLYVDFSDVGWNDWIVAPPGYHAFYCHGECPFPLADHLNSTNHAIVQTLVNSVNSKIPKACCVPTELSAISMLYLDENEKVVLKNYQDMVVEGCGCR

BMP-4 [9] = assay: SPR (BIAcore); analyte over immobilized cytokine
BMP-6 [10] = assay: SPR (BIAcore); analyte over immobilized cytokine
TGF-β2 [11] = assay: SPR (BIAcore); analyte over immobilized cytokine
[12] = target: purified human TGF-β1 (human) (UniProt P01137); remark: listed apart in the source

Sequence of purified human TGF-β1 (human) (P01137 279-390 limits assumed): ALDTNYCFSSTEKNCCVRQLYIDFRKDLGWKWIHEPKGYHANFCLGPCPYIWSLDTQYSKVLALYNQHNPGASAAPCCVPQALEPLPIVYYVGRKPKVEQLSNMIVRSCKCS
Sequence of BMP-6 (P22004 375-513): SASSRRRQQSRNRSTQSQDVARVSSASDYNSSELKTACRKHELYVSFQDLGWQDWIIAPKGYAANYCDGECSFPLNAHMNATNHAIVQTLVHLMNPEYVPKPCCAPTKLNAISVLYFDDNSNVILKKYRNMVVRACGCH

B1: bovine fetuin (protein)
chain: IPLDPVAGYKEPACDDPDTEQAALAAVDYINKHLPRGYKHTLNQIDSVKVWPRRPTGEVYDIEIDTLETTCHVLDPTPLANCSVRQQTQHAVEGDCDIHVLKQDGQFSVLFTKCDSSPDSAEDVRKLCPDCPLLAPLNDSRVVHAVEVALATFNAESNGSYLQLVEISRAQFVPLPVSVSVEFAVAATDCIAKEVVDPTKCNLLAEKQYGFCKGSVIQKALGGEDVRVTCTLFQTQPVIPQPQPDGAEAEAPSAVPDAAGPTPSAAGPPVASVVVGPSVVAVPLPLHRAHYDLRHTFSGVASVESSSGEAFHVGKTPIVGQPSIPGGPVRLCPGRIRYFKI
BMP-4 [1]
  Kd: 0.12 µM
  koff: 0.00051 s⁻¹
  kon: 4200 M⁻¹ s⁻¹
BMP-6 [2]
  Kd: 0.71 µM
  koff: 0.0021 s⁻¹
  kon: 2900 M⁻¹ s⁻¹
TGF-β2 [3]
  Kd: 4.4 µM
  koff: 0.0024 s⁻¹
  kon: 550 M⁻¹ s⁻¹
[4]
  percent neutralization of the antiproliferative activity of TGF-β1 (3H-thymidine incorporation, Mv1Lu cells): 150%
[5]
  IC50, inhibition of calcium-deposition: 10 µM
[6]
  proliferation of Mv1Lu cells without added cytokine (3H-thymidine incorporation): 8 pM
[7]
  IC50, block of the anti-proliferative activity of exogenously added TGF-β1 (18 pM) on Mv1Lu cells (FIG. 12): 3e-06 M
[8]
  IC50, reversal of BMP-2 inhibition of Mv1Lu cell growth: 2 µM and 5 µM
BMP-4 [9]
  Kd: 0.14 µM
  koff: 0.00058 s⁻¹
  kon: 4200 M⁻¹ s⁻¹
BMP-6 [10]
  Kd: 0.86 µM
  koff: 0.0025 s⁻¹
  kon: 2900 M⁻¹ s⁻¹
TGF-β2 [11]
  koff: 0.0032 s⁻¹
  kon: 550 M⁻¹ s⁻¹
[12]
  IC50, inhibition of the anti-proliferative activity of TGF-β1 (12 pM) on Mv1Lu cells: 4.2e-06 M
